Laboratory results taken from patent publication US20220332795A1.

These binders were tested against human serum albumin (human) (UniProt P02768) (assay: solution ELISA screen (luminescence)).
human serum albumin (human), sequence (P02768 25-609 limits assumed): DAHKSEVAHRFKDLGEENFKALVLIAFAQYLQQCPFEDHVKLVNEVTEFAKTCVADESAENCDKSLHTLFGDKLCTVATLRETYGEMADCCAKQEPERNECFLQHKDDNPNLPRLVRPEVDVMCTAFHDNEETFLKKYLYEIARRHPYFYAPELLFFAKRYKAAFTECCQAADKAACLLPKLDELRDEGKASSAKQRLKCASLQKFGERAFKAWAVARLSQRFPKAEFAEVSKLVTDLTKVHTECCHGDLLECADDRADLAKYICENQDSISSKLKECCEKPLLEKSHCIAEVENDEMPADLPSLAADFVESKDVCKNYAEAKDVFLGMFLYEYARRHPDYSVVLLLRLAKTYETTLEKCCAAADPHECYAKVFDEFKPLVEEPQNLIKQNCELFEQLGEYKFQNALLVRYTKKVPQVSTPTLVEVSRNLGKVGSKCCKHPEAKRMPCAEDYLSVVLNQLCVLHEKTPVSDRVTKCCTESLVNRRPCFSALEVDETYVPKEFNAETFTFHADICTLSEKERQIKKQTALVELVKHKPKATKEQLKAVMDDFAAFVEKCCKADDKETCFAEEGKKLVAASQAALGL

Row | Binder | RLU [RLU]
1 | SEQ ID NO 221 (designed binder, not shown: small tags and cut ends) MLPAPKNLVVSRVTEDSARLSWTAPDAAFDSFFIGYLEPQPPGEAIFLDVPGSERSYDLTGLKPGTEYNVTIQGVKGGFPSPLTAFFTT | 59000
2 | SEQ ID NO 222 (designed binder, not shown: small tags and cut ends) MLPAPKNLVVSRVTEDSARLSWTAPDAAFDSFFIGYLEPQPPGEAIVLDVPGSERSYDLTGLKPGTEYNVTIQGVKGGFPSHPLAAAFTT | 15600
3 | SEQ ID NO 223 (designed binder, not shown: small tags and cut ends) MLPAPKNLVVSRVTEDSARLSWTAPDAAFDSFFIGYLEPQPPGEAIGLAVPGSERSYDLTGLKPGTEYNVTIQGVKGGFPSVPLQANFTT | 18300
4 | SEQ ID NO 231 (designed binder, not shown: small tags and cut ends) MLPAPKNLVVSRVTEDSARLSWTAPDAAFDSFFIGYLEPQPPGEAIHLYVPGSERSYDLTGLKPGTEYNVTIQGVKGGFPSDPLDAVFTT | 20600
5 | SEQ ID NO 235 (designed binder, not shown: small tags and cut ends) MLPAPKNLVVSRVTEDSARLSWTAPDAAFDSFFIGYLEPQPPGEAIQLTVPGSERSYDLTGLKPGTEYNVTIQGVKGGFPSLPLSADFTT | 23800
6 | SEQ ID NO 217 (designed binder, not shown: small tags and cut ends) MLPAPKNLVVSRVTEDSARLSWTAPDAAFDSFYIAYAEPRPDGEAIILEVPGSERSYDLTGLKPGTEYSVLIHGVKGGLLSSPLRAVFTT | 16200
7 | SEQ ID NO 227 (designed binder, not shown: small tags and cut ends) MLPAPKNLVVSRVTEDSARLSWTAPDAAFDSFYIAYAEPRPDGEAIGLRVPGSERSYDLTGLKPGTEYSVLIHGVKGGLLSSPLSAIFTT | 28200
8 | SEQ ID NO 230 (designed binder, not shown: small tags and cut ends) MLPAPKNLVVSRVTEDSARLSWTAPDAAFDSFYIAYAEPRPDGEAIWLLVPGSERSYDLTGLKPGTEYSVLIHGVKGGLLSSPLVAFFTT | 32000
9 | SEQ ID NO 236 (designed binder, not shown: small tags and cut ends) MLPAPKNLVVSRVTEDSARLSWTAPDAAFDSFYIAYAEPRPDGEAILLQVPGSERSYDLTGLKPGTEYSVLIHGVKGGLLSSPLDAEFTT | 15600
10 | SEQ ID NO 240 (designed binder, not shown: small tags and cut ends) MLPAPKNLVVSRVTEDSARLSWTAPDAAFDSFYIAYAEPRPDGEAISLSVPGSERSYDLTGLKPGTEYSVLIHGVKGGLLSSPLHAKFTT | 18000
11 | SEQ ID NO 229 (designed binder, not shown: small tags and cut ends) MLPAPKNLVVSRVTEDSARLSWTAPDAAFDSFYIAYAEPRPDGEAIQLLVPGSERSYDLTGLKPGTEYSVLIHGVKGGLLSSPLVAHFTT | 15400
12 | SEQ ID NO 224 (designed binder, not shown: small tags and cut ends) MLPAPKNLVVSRVTEDSARLSWTAPDAAFDSFYIAYAEPRPDGEAILLRVPGSERSYDLTGLKPGTEYSVLIHGVKGGLLSSPLVAEFTT | 26200
13 | SEQ ID NO 237 (designed binder, not shown: small tags and cut ends) MLPAPKNLVVSRVTEDSARLSWTAPDAAFDSFYIAYAEPRPDGEAIVLAVPGSERSYDLTGLKPGTEYSVLIHGVKGGLLSSPLYASFTT | 27700
14 | SEQ ID NO 218 (designed binder, not shown: small tags and cut ends) MLPAPKNLVVSRVTEDSARLSWTAPDAAFDSFYIAYAEPRPDGEAIHLVVPGSERSYDLTGLKPGTEYSVLIHGVKGGLLSSPLSAIFTT | 14100
15 | SEQ ID NO 238 (designed binder, not shown: small tags and cut ends) MLPAPKNLVVSRVTEDSARLSWTTPDAAFDSFYIAYAEPRPDGEAIRLQVPGSERSYDLTGLKPGTEYSVLIHGVKGGLLSSPLGFTT | 99000

Further lines, results first:

Row | RLU [RLU] | Binder
16 | 75400 | SEQ ID NO 232 (designed binder, not shown: small tags and cut ends) MLPAPKNLVVSRVTEDSARLSWTAPDAAFDSFFIGYLEPQPPGEAIYLDVPGSERSYDLTGLKPGTEYNVTIQGVKGGFPSTFTT
17 | 22000 | SEQ ID NO 233 (designed binder, not shown: small tags and cut ends) MLPAPKNLVVSRVTEDSARLSWTAPDAAFDSFYIAYAEPRPDGEAIQLFVPGSERSYDLTGLKPGTEYSVLIHGVKGGLLSSPLKAYFTT
18 | 29600 | SEQ ID NO 228 (designed binder, not shown: small tags and cut ends) MLPAPKNLVVSRVTEDSARLSWTAPDAAFDSFYIAYAEPRPDGEAIVLRVPGSERSYDLTGLKPGTEYSVLIHGVKGGLLSSPLAASFTT
19 | 20800 | SEQ ID NO 234 (designed binder, not shown: small tags and cut ends) MLPAPKNLVVSRVTEDSARLSWTAPDAAFDSFYIAYAEPRPDGEAIVLVVPGSERSYDLTGLKPGTEYSVLIHGVKGGLLSSPLSAIFTT
20 | 11800 | SEQ ID NO 219 (designed binder, not shown: small tags and cut ends) MLPAPKNLVVSRVTEDSARLSWTAPDAAFDSFYIAYAEPRPDGEAISLKVPGSERSYDLTGLKPGTEYSVLIHGVKGGLLSSPLEAIFTT
21 | 21100 | SEQ ID NO 239 (designed binder, not shown: small tags and cut ends) MLPAPKNLVVSRVTEDSARLSWTAPDAAFDSFYIAYAEPRPDGEAIQLVVPGSERSYDLTGLKPGTEYSVLIHGVKGGLLSSPLYAIFTT
22 | 16000 | SEQ ID NO 226 (designed binder, not shown: small tags and cut ends) MLPAPKNLVVSRVTEDSARLSWTAPDAAFDSFYIAYAEPRPDGEAIGLHVPGSERSYDLTGLKPGTEYSVLIHGVKGGLLSSPLTASFTT
23 | 17000 | SEQ ID NO 225 (designed binder, not shown: small tags and cut ends) MLPAPKNLVVSRVTEDSARLSWTAPDAAFDSFYIAYAEPRPDGEAILLQVPGSERSYDLTGLKPGTEYSVLIHGVKGGLLSSPLSASFTT
